Positions count from the first letter of the chain named. Values joined by “and” are separate entries in the source; they are usually repeats but may differ in a detail not shown here. Identical values can stand only once.
B1: HU-B wild type (natural protein)
chain: MNKSQLIDKIAAGADISKAAAGRALDAIIASVTESLKEGDDVALVGFGTFAVKERAARTGRNPQTGKEITIAAAKVPSFRAGKALKDAVN
B2: LysrHU-B (lysine-replaced HU-B) (other)
chain: B1 chain with K83A, K86A
B3: LoodHU-B (loop-deleted HU-B) (other)
chain: MNKSQLIDKIAAGADISKAAAGRALDAIIASVTESLKEGDDVALVGFGTFASGGGGSGGGGSKVPSFRAGKALKDAVN
B4: LoodLysrHU-B (loop-deleted and lysine-replaced HU-B) (other)
chain: B3 chain with K71A, K74A

Target: the molecule itself
Experiment: cross-linking

Protein | stoichiometry N
B1 | 4 and 3 and 6
B2 | 2 and 4
B3 | 4
B4 | 2 and 4

Target: the molecule itself
Experiment: SEC

Protein | stoichiometry N
B1 | 2
B3 | 2
